Here are results for 7 molecules from paper PMC2843395 (Journal of molecular biology, 2010).

B2: S100B (wild-type, recombinant) (natural protein, bovine)
chain: MSELEKAVVALIDVFHQYSGREGDKHKLKKSELKELINNELSHFLEEIKEQEVVDKVMETLDSDGDGECDFQEFMAFVAMITTACHEFFEHE

Like-named read-outs stand apart in the source and are kept apart here. *: point of attachment. TAMRA = 5-carboxytetramethylrhodamine, CN(C)c1ccc2c(-c3ccc(C(=O)*)cc3C(=O)[O-])c3ccc(=[N+](C)C)cc-3oc2c1

The target in one data set is TAMRA-TRTK12-am. As to the kind of experiment: fluorescence polarisation.
Data set [1] concerns the target S100B (Rattus norvegicus) (UniProt P04631). Particulars: cited from earlier work.
A further data set concerns the target E72A mutant of S100B. Kind of data set: fluorescence polarisation. Background: Fluorescence polarisation rises when a labelled molecule tumbles more slowly, as on binding a larger partner.
The target in data set [2] is T1, S100B (tight site, EF2) (Bos taurus, UniProt P02638).
T1 sequence (P02638 1-92): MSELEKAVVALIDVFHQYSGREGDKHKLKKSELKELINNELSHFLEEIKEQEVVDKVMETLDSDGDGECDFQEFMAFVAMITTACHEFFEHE
As to conditions: p53^367–388; ref [21]; cited from earlier work.

For data set [3], the target named is T1, S100B (tight site, EF2). Particulars: p53^367–388; ref [21]; cited from earlier work. The source holds these as a separate data set.
In data set [4] the target is B2. As to the kind of experiment: crystal structure.
Data set [5] deals with B2. Kind of data set: fluorescence polarisation.
Data set [6] concerns the target B2. Kind of data set: fluorescence polarisation. This is another data set of the same source.
The data set “crystal structure” concerns the molecule itself. Kind of data set: crystal structure.
Data set [7] deals with B2. Kind of data set: fluorescence polarisation. The source holds these as a separate data set.
Data set [8] has as its target B2. Kind of data set: fluorescence polarisation. This is another data set of the same source.

What is called Kd is a measure of binding affinity in units of concentration. As to E72A mutant of S100B (natural protein), in the data set with TAMRA-TRTK12-am, the dissociation constant Kd came out at 16.8 µM.

Regarding S100B (from UniProt P04631), in data set [1], the dissociation constant (Kd) was below 0.001 µM.

In the data set with E72A mutant of S100B, “TRTK-12 peptide (derived from the actin capping protein CapZ, residues 265-276)” returned a Kapp of 110 µM and an equilibrium dissociation constant (Kd) of 3.2 µM.

On to “p53^367–388: peptide derived from the negative regulatory domain of p53 (residues 367–388)”, for which, in the data set with S100B (tight site, EF2) [2], the “Fold increase in Mn2+ binding of S100B with p53 peptide bound” value is 3 fold. Further, the “Fold increase in Ca2+ affinity of S100B EF2 with p53 peptide bound” value with S100B (tight site, EF2) [3] is 3 fold.

B1: TRTK-12 peptide (derived from the actin capping protein CapZ, residues 265-276) (peptide)
peptide: TRTKIDWNKILS
The stoichiometry N is the number of molecules, sites or subunits per partner or assembly. Turning to B1, the “stoichiometry N” value in data set [4] stood at 1 per S100B subunit. The dissociation constant Kd was 3 ± 1 µM in data set [5] and 2.9 ± 0.5 µM in data set [6].

Consider B2, for which, in the data set “crystal structure”, the “stoichiometry N” value came out at 2.

B3: TAMRA-TRTK12-am (peptide)
peptide: {TAMRA}-TRTKIDWNKILS-NH2
SMILES: CC[C@H](C)[C@H](NC(=O)[C@H](CCCCN)NC(=O)[C@H](CC(N)=O)NC(=O)[C@H](Cc1c[nH]c2ccccc12)NC(=O)[C@H](CC(=O)O)NC(=O)[C@@H](NC(=O)[C@H](CCCCN)NC(=O)[C@@H](NC(=O)[C@H](CCCNC(=N)N)NC(=O)[C@@H](NC(=O)c1ccc(-c2c3ccc(=[N+](C)C)cc-3oc3cc(N(C)C)ccc23)c(C(=O)[O-])c1)[C@@H](C)O)[C@@H](C)O)[C@@H](C)CC)C(=O)N[C@@H](CC(C)C)C(=O)N[C@@H](CO)C(N)=O
Turning to B3, the Kd in data set [7] came out at 1.2 ± 0.2 µM; in [8], 6 ± 2 µM.
